# Source: article PMC6261992, “Structural insight into D-xylose utilization by xylose reductase from Scheffersomyces stipitis” (Scientific Reports, 2018)
# B1: D-xylose reductase from Scheffersomyces stipitis (enzyme, UniProt P31867 1-318, looked up)
# chain: MPSIKLNSGYDMPAVGFGCWKVDVDTCSEQIYRAIKTGYRLFDGAEDYANEKLVGAGVKKAIDEGIVKREDLFLTSKLWNNYHHPDNVEKALNRTLSDLQVDYVDLFLIHFPVTFKFVPLEEKYPPGFYCGKGDNFDYEDVPILETWKALEKLVKAGKIRSIGVSNFPGALLLDLLRGATIKPSVLQVEHHPYLQQPRLIEFAQSRGIAVTAYSSFGPQSFVELNQGRALNTSPLFENETIKAIAAKHGKSPAQVLLRWSSQRGIAIIPKSNTVPRLLENKDVNSFDLDEQDFADIAKLDINLRFNDPWDWDKIPIFV
# notes: D-xylose reductase (SsXR) of Scheffersomyces stipitis; cloned NdeI/XhoI into pProEX-HTa; The vector adds a 6x-His tag with an rTEV protease cleavage site at the N-terminus; also called SsXR; XR; source: E. coli BL21(DE3)-T1R, purified (Ni-NTA, gel filtration)
# Key:
# [1] = target: the molecule itself; test: SEC; analytical, Superdex increase 200 10/300 GL, 40 mM Tris-HCl pH 8.0, 0 mM NaCl; 0.5 mL at 1 mg/mL; (in 50 and 100 mM NaCl generally separated into monomers)
# purified protein [2] = substrate: NC(=O)C1=CN([C@@H]2O[C@H](COP(=O)(O)OP(=O)(O)OC[C@H]3O[C@@H](n4cnc5c(N)ncnc54)[C@H](OP(=O)(O)O)[C@@H]3O)[C@@H](O)[C@H]2O)C=CC1; test: purified protein; assay type: biochemical, Scheffersomyces stipitis; details: 150 mM NaCl, 100 mM D-xylose, 100 mM Tris-HCl pH 8.0, 303 K, crystal structure of the complex at 2.0 Å, 30.0 °C, varied: cofactor
# purified protein [3] = substrate: NC(=O)C1=CN([C@@H]2O[C@H](COP(=O)(O)OP(=O)(O)OC[C@H]3O[C@@H](n4cnc5c(N)ncnc54)[C@H](O)[C@@H]3O)[C@@H](O)[C@H]2O)C=CC1; test: purified protein; assay type: biochemical, Scheffersomyces stipitis; details: 150 mM NaCl, 100 mM D-xylose, 100 mM Tris-HCl pH 8.0, 303 K, 30.0 °C, varied: cofactor
protein,measurement,setting,value
B1,stoichiometry N,[1],2
same,Km,purified protein [2],27.7 ± 2 µM
same,kcat,purified protein [2],7.63 ± 0.19 s⁻¹
same,Km,purified protein [3],136 ± 17 µM
same,kcat,purified protein [3],2.39 ± 0.15 s⁻¹
